Source: publication PMC3660092

Biological target: YFP-IP3R type 1 (UniProt P11881)
Assay: FRET or BRET

Sequence of UniProt P11881 (P11881 whole entry): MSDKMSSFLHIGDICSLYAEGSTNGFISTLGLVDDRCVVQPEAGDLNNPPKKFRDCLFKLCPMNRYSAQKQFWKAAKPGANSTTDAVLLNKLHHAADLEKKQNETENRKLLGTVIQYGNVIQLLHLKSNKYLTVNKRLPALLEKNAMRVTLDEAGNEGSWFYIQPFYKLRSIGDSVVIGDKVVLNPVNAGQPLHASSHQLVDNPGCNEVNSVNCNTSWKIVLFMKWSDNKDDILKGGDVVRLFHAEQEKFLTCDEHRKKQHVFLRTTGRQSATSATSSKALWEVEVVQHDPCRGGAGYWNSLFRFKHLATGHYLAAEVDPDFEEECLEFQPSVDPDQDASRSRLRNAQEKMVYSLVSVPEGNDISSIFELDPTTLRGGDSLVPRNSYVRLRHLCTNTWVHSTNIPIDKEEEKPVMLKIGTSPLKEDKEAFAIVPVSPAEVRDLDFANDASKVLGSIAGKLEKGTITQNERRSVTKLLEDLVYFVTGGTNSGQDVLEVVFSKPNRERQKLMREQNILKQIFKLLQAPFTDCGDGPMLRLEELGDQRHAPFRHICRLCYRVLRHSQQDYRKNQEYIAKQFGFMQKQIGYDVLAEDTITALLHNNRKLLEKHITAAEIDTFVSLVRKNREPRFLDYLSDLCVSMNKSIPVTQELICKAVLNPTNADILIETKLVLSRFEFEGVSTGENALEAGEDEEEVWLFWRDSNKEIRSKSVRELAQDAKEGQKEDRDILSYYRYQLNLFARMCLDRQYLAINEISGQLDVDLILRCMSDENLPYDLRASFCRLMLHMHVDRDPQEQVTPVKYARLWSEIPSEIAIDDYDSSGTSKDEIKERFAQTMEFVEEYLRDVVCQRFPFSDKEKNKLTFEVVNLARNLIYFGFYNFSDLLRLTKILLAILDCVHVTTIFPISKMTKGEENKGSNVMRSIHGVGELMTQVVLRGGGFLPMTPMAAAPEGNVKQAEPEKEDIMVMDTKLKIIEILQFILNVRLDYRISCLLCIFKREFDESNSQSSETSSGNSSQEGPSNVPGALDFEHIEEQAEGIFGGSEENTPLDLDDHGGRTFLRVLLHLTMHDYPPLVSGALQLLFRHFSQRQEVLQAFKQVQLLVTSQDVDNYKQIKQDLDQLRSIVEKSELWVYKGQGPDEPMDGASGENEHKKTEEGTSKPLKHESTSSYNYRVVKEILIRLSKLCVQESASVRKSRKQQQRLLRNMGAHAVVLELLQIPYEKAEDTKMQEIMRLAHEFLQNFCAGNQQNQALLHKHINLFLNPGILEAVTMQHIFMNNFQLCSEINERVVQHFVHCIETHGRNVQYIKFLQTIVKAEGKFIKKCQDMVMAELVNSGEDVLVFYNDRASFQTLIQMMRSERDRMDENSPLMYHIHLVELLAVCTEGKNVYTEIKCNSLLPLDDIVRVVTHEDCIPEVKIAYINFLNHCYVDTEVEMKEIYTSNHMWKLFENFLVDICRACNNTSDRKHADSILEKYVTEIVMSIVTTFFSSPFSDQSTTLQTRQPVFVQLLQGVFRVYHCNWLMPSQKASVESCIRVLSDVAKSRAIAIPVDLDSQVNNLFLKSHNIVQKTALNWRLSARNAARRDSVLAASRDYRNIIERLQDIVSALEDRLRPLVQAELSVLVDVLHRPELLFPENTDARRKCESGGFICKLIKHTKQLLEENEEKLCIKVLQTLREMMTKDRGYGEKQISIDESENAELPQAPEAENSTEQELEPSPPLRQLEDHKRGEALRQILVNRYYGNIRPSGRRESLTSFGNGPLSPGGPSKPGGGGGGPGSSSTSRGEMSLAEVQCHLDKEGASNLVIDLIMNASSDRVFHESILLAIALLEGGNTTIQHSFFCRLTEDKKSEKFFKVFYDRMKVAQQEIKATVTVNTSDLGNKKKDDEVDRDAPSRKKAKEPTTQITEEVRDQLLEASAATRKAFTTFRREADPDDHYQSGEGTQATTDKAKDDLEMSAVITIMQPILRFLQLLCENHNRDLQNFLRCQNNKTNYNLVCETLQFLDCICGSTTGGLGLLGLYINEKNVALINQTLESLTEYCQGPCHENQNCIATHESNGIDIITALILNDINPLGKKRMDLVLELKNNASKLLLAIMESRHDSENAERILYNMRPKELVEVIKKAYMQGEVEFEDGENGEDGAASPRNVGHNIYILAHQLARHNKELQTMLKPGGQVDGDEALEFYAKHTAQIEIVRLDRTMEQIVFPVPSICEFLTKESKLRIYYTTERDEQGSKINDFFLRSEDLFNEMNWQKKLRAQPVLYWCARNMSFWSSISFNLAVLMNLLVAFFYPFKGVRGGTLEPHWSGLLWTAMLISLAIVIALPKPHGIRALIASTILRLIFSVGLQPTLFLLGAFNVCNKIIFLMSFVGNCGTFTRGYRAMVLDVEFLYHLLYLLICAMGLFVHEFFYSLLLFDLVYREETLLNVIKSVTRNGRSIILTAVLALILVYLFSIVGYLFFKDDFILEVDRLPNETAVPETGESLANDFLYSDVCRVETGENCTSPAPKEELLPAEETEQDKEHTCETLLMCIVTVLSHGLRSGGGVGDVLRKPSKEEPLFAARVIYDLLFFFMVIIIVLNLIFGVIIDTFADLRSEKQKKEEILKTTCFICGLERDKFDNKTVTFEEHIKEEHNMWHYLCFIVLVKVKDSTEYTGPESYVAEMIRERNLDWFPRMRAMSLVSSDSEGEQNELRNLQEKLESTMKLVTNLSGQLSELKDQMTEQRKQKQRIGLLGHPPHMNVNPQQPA

“CFP-Bcl-2 (from UniProt P10415 1-239) (natural protein)” was tested, and the increase of the CFP signal after YFP bleaching (FRET efficiency) was 28%.
